From patent US8809027B1, “Genetically modified organisms for increased microbial production of 3-hydroxypropionic acid involving an oxaloacetate alpha-decarboxylase” (OPX Biotechnologies, Inc., priority 2009, dated 2014)

Key:
Assay type in all cases: biochemical
[1] = Coupled spectrophotometric assay of oxaloacetate alpha-decarboxylase activity (purified YdfG, NADPH absorbance at 340 nm); settings: for Average Specific Activity: oad variants versus native Oad in the spectrophotometric assay; for Fold Increase in oxaloacetate alpha-decarboxylase specific activity: relative to native (parent) Oad lacking mutations, in vitro
Experimental: A coupled assay was developed in order to biochemically assess the oxaloacetate alpha-decarboxylase activity of the candidate enzymes. The coupled assay used exogenously-added purified E. coli YdfG protein, which converts malonate semialdehyde to 3-HP with the concomitant conversion of NADPH to NADP^+ (FIG. 5). […] 3-HP is also detectable by standard analytical methods, for example HPLC and GS-MS. Assays were performed as 200 microliter reactions in a 96-well plate format using a Molecular Dynamics SpectraMax 384 microplate reader with SoftmaxPro software (Molecular Dynamics, Sunnyvale Calif.) to quantitate the rate of change in the 340 nm absorbance. All assays were conducted at 37° C., and the instrument was allowed to mix the plate for 1 second prior to each measurements. The progress of each reaction was monitored for 20 minutes during which measurements were made every 20 seconds. Reaction conditions consisted of 50 mM PIPES pH 6.8 (unless otherwise stated), 2 mM thymidine pyrophosphate, 10 mM dithiothreitol, 4 mM magnesium chloride, 1 mM NADPH (EMD Bioscience), 0.075 mg/mL purified YdfG (Molecular Throughput), and 5 mM oxaloacetate (unless otherwise stated). All chemicals were obtained from Sigma-Aldrich (St. Louis, Mo.) unless otherwise stated. Reactions were initiated with the addition of 10 microliters of concentrated purified protein to each reaction well. In addition, a negative control was performed with each experimental set to control for the rate of background NADPH oxidation. Once the reaction time course was read and the slopes of each well were calculated, the specific activities over the negative control of each candidate protein were calculated. All values reported are the average specific activities measured in triplicate.

[2] = GC-MS confirmation of 3-HP production and pH dependence of candidate enzymes (coupled reaction with YdfG); settings: 3-HP by GC-MS at pH 5.5, pH 6.0 and pH 6.8; 5 mM oxaloacetate; 37° C., at least 12 hours
Experimental: Conformation of 3-HP production as well as assessment of the pH dependence of each candidate enzyme was performed as described above, except that coupled reactions with YdfG were evaluated for 3-HP production by GC-MS. Reaction conditions consisted of 50 mM PIPES pH 6.8, 2 mM thymidine pyrophosphate, 10 mM dithiothreitol, 4 mM magnesium chloride, 1 mM NADPH (EMD Bioscience), 0.075 mg/mL purified YdfG (Molecular Throughput), and 5 mM oxaloacetate (unless otherwise stated). All chemicals were obtained from Sigma-Aldrich unless otherwise stated. Reactions were performed at 0.6 mL volumes in triplicate and were initiated with the addition of 600 micrograms of purified protein. In addition, a negative control lacking protein was also performed with each set. Reactions were allowed to proceed at 37° C. for at least 12 hours. […] Soluble monomeric 3-HP is quantified using GC-MS after a single exaction with ethyl acetate from a reaction sample. […] A standard curve of known 3-HP concentrations is prepared at the beginning of the run and a known quantity of ketohexanoic acid (1 g/L) is added to both the standards and the samples to act as an internal standard for Quantitation, with tropic acid as an additional internal standard. […] 3-HP is quantified using a 3HP standard curve at the beginning of the run and the data are analyzed using HP Chemstation. […]

[3] = GC-MS analysis of 3-HP produced in the spectrophotometric assay samples
Experimental: A coupled assay was developed in order to biochemically assess the oxaloacetate alpha-decarboxylase activity of the candidate enzymes. The coupled assay used exogenously-added purified E. coli YdfG protein, which converts malonate semialdehyde to 3-HP with the concomitant conversion of NADPH to NADP^+ (FIG. 5). […] 3-HP is also detectable by standard analytical methods, for example HPLC and GS-MS. Assays were performed as 200 microliter reactions in a 96-well plate format using a Molecular Dynamics SpectraMax 384 microplate reader with SoftmaxPro software (Molecular Dynamics, Sunnyvale Calif.) to quantitate the rate of change in the 340 nm absorbance. […] The progress of each reaction was monitored for 20 minutes during which measurements were made every 20 seconds. […] Once the reaction time course was read and the slopes of each well were calculated, the specific activities over the negative control of each candidate protein were calculated. All values reported are the average specific activities measured in triplicate.
Activity of KGD was not measured by the spectrophotometric assay.
Conformation of 3-HP production as well as assessment of the pH dependence of each candidate enzyme was performed as described above, except that coupled reactions with YdfG were evaluated for 3-HP production by GC-MS. […]

Molecule	Average Specific Activity [1] [units/mg]	Fold Increase in oxaloacetate alpha-decarboxylase specific activity [1] [fold]	pH of optimal activity [2]	Final [3HP] ([3]; Beginning [OAA] 5 mM, pH 6.8) [g/L]	3-HP production confirmed by GC-MS ([3]; in the presence of 5 mM oxaloacetate)
Mutant Oad 1: variant of Leuconostoc mesenteroides oad with mutations N45T, R249L, D302G, V418A and L476Q (protein, Leuconostoc mesenteroides, variant of Leuconostoc mesenteroides oad with mutations N45T, R249L, D302G, V418A and L476Q) MTDTLTFNTKHLLEALFESGIRHFIVSPGSRSTPIALLLAEYAEQTNEIKLFVDVDERSAGFFALGIAKTLLEPVVLLGTSGTAIAEYMPAVAEAYAANIPLVVLSTDRPQELQFNGAPQTIPQSNLFGQLTKQAVLIRLQDMHSDVTEYIDFIVQKVVNLSITAPRGPIQINLPLRKPLMPVLDRQDEVHVQRVVFDKQSVQYRLPPITAKRLLILAGPNVLNSYDDSLKKFAIKNNVPVIADVLSQSLHTYTIHGIDVLLQAHKINADLKPDLVVRFGKTPVSARVLQWLKEENILTWHVGEDAGVDHTRHIVRAIKMAPHDFLESMHLTLSKNQIDFNQKWLSLPKVIKTRNEMNIITALDDAVPDDTHIFVANSMPIRDMDNFFTGNHTQRIYANRGANGIDGVISSALGMSAVAKQRSVLLTGDLTLFHDMNGLMMAKNYQLPLDIIVINNNGGGIFSFLPQAGAPKYFEQQFGTPLNIDIKKIADLYYIDYHQLNVPEALSQILQTPSKTTRLIEYKSDHQRNRDDHREVLEMLK	0.0121	1.6	–	–	–
Mutant Oad 2: variant of Leuconostoc mesenteroides oad with mutation T479N (protein, Leuconostoc mesenteroides, variant of Leuconostoc mesenteroides oad with mutation T479N) MTDTLTFNTKHLLEALFESGIRHFIVSPGSRSTPIALLLAEYAEQNNEIKLFVDVDERSAGFFALGIAKTLLEPVVLLGTSGTAIAEYMPAVAEAYAANIPLVVLSTDRPQELQFNGAPQTIPQSNLFGQLTKQAVLIRLQDMHSDVTEYIDFIVQKVVNLSITAPRGPIQINLPLRKPLMPVLDRQDEVHVQRVVFDKQSVQYRLPPITAKRLLILAGPNVLNSYDDSLKKFAIKNNVPVIADVLSQSRHTYTIHGIDVLLQAHKINADLKPDLVVRFGKTPVSARVLQWLKEENILTWHVDEDAGVDHTRHIVRAIKMAPHDFLESMHLTLSKNQIDFNQKWLSLPKVIKTRNEMNIITALDDAVPDDTHIFVANSMPIRDMDNFFTGNHTQRIYANRGANGIDGVISSALGMSAVVKQRSVLLTGDLTLFHDMNGLMMAKNYQLPLDIIVINNNGGGIFSFLPQAGAPKYFEQLFGNPLNIDIKKIADLYYIDYHQLNVPEALSQILQTPSKTTRLIEYKSDHQRNRDDHREVLEMLK	0.0173	2.2	–	–	–
Mutant Oad 3: variant of Leuconostoc mesenteroides oad with mutations R394C, D434G and T511A (protein, Leuconostoc mesenteroides, variant of Leuconostoc mesenteroides oad with mutations R394C, D434G and T511A) MTDTLTFNTKHLLEALFESGIRHFIVSPGSRSTPIALLLAEYAEQNNEIKLFVDVDERSAGFFALGIAKTLLEPVVLLGTSGTAIAEYMPAVAEAYAANIPLVVLSTDRPQELQFNGAPQTIPQSNLFGQLTKQAVLIRLQDMHSDVTEYIDFIVQKVVNLSITAPRGPIQINLPLRKPLMPVLDRQDEVHVQRVVFDKQSVQYRLPPITAKRLLILAGPNVLNSYDDSLKKFAIKNNVPVIADVLSQSRHTYTIHGIDVLLQAHKINADLKPDLVVRFGKTPVSARVLQWLKEENILTWHVDEDAGVDHTRHIVRAIKMAPHDFLESMHLTLSKNQIDFNQKWLSLPKVIKTRNEMNIITALDDAVPDDTHIFVANSMPIRDMDNFFTGNHTQCIYANRGANGIDGVISSALGMSAVVKQRSVLLTGDLTLFHGMNGLMMAKNYQLPLDIIVINNNGGGIFSFLPQAGAPKYFEQLFGTPLNIDIKKIADLYYIDYHQLNVPEALSQILQAPSKTTRLIEYKSDHQRNRDDHREVLEMLK	0.0222	2.8	–	–	–
KGD: alpha-ketoglutarate decarboxylase (kgd) from Mycobacterium tuberculosis, penta-histidine tag, purified (protein, listed as Mycobacterium tuberculosis, penta-histidine tag, alpha-ketoglutarate decarboxylase (kgd) from Mycobacterium tuberculosis, penta-histidine tag, purified) MNLRGTAARRRHRATGDTLDARQLVRQQLRQLQTETRPGALVRWFLLDPKELFDIFVTIQGFTQTTTRQRRQLLQTHNCQIITVVFRLACRQFIIQLTGGQQNTANFIAVADTILVGRFLQDATEFNLGKILNLRNRRLVAQHGFRGKHDQRTLDAVQRVAAQQVKVIGRGARHRDRHATLSPQLQKALNARRRVVRALTLVAVWQQQNNVGQLTPFRFARADELVNDRLGTINKVAELRLPQHNRVWIANGITVLKTHSRVFRQRRIINQELTTGRAAVAVSRQQLQRGELLAGVTVDQHRMTLAKGATTRVLTAQTDQLALSNQAAQRQQLTKRPVNLTLIRHLTTLFQHRLNARVCRETVRQRQEGITDTCQQGFVNSGRQARWDHLVRLDALRRLDAVLLQFAHFVEHTLQLALVIAQRILRLFHADVATTDQSLGVGFTGATLGVHDVIDIRIGHRWIVTLIMTTTTIAQHVNNNVLFKALAEVNCQTRNPDTRFWIVAVHVEDWRTDHLRHIRAVLARTRVFRSGGEADLVVHNDVNRTTHTIARQICQIQRLRNNALTREGRITVQHQRNDGECTLAVGVNGTVVQQVLLRTHQTFQHWIDRFQMGRICRQGNLNIVIAKHLQIQTRRTQVVLDIAGTVSLGRVQIAFKLRKDLRIRFAHDVRQDIQATTVRHANDHFIQTMLGTLVNRRVHHWNNRFRTLQAKTLLAHILGLQEGFKRLRCVQFRQDVLLLSNGRFDVLRLDTLLQPLLLFRVQNVRVLNTDVTAVRVAQQTQHVTQLFVLSTRETVNLKDAVQVPQSQAMRQHLQIRMRTKARLIQAQRVGVRHQMAAVAIGRDQVHHTCVLVNDRVRIIGAPTHWQVRDAQLAEDLIPEAIRQQQFMNGTQEVTAFRTLNDTVVVGRSQGNQFANTQLSDAFLGRALELRRIFHRTDTDDSTLTWHQAWHRVHRANRARIRQRNRNASEVLGGQFTITSTTDDVLVRGNELREAHRLATFDTGHHQRALAIFTLQVNSQTQIGVRRSNRRRLTVHLRVVAIHIRELLNRLNQSITQQMGKADFTTTRAFQLIIDHDTIIDQQFRWHSTHRGRRRHFQRRAHVLHDSSRRTTQDSNFIAFGWRRHRGLGGQSRHDTVARCGRVGRFRRRLRSRRCRTLSDQRAGHTSRLSSRLGSRLRAIVHQKLMPAWVNGRRIITKFTIHTNTRRVLSHHGYISFLKNSISQRQGRHKIYSKCIINTDNIL	–	–	6.8	0.004 ± 0.001	3-HP was produced
